Data on 2 molecules can be found in article PMC11931385, “Structural and functional analysis of cancer-associated missense variants in the retinoblastoma protein pocket domain” (The Journal of Biological Chemistry, 2025).

Holding throughout (assay): fluorescence polarisation; 37 °C, after the 25 °C reading ramped over 7 min to 37 °C and 2 min incubation; unlabeled Rb^P against 1.5 nM TMR-E2F1^TD or 7.5 nM TMR-E7^LxCxE; 25 mM Tris pH 8.0, 200 mM NaCl, 1 mM DTT, 0.1% Tween-20; apparent Kd
Conditions in all cases: both partners purified
(In general: Fluorescence polarisation rises when a labelled molecule tumbles more slowly, as on binding a larger partner.)

Assay [1] deals with T1, Rb^P T638S (human, UniProt P06400 380-788, T638S).
T1 construct: also called variant 45
T1 sequence (looked up): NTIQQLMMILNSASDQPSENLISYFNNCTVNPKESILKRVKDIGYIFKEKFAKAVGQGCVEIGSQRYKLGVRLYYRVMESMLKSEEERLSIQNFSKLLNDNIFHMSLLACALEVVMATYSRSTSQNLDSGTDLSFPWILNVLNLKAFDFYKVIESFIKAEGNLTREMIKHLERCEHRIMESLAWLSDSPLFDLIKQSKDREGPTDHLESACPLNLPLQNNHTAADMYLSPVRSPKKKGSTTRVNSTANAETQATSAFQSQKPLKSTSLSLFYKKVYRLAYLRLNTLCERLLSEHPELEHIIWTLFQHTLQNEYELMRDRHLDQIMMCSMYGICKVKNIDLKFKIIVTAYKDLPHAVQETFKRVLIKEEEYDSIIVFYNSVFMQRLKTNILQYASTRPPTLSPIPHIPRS

Assay [2] concerns the target T2, Rb^P K548N (human, UniProt P06400 380-788, K548N).
T2 construct: also called variant 26
T2 sequence (looked up): T1 sequence (looked up) with K169N, S259T

The target in assay [3] is T3, Rb^P H673Y (human, UniProt P06400 380-788, H673Y).
T3 construct: also called variant 55
T3 sequence (looked up): T1 sequence (looked up) with S259T, H294Y

For assay [4], the target named is T4, Rb^P S612P (human, UniProt P06400 380-788, S612P).
T4 construct: also called variant 39
T4 sequence (looked up): T1 sequence (looked up) with S233P, S259T

In assay [5] the target is T5, retinoblastoma protein pocket domain (Rb^P), wild type (human, UniProt P06400 380-788).
T5 construct: also called WT Rb^P; WT
T5 sequence (looked up): T1 sequence (looked up) with S259T

Residue numbers refer to the chain shown, from its start. Names and notes keep the numbering of the source. No end group written: not given here. TMR = tetramethyl rhodamine dye

B1: TMR-E2F1^TD, peptide of the E2F1 transactivation domain (peptide)
peptide: {TMR}-GEGIRDLFDCDFGDLTPLD
notes: also called E2F^TD; source: synthetic peptide, bought: GenScript
For B1, the Kd in assay [1] was determined as 38 nM; in assay [2] it was 178 nM; in assay [3], 66 nM; in assay [4], 49 nM; in assay [5], 22 nM.

B2: TMR-E7^LxCxE, LxCxE peptide of the E7 oncoprotein from HPV (peptide)
peptide: DLYCYEQLN
modifications: also: TMR label, position not given here
notes: source: synthetic peptide, bought: GenScript
With B2, the Kd in assay [1] amounted to 14 nM; in assay [2], 15 nM; in assay [3], 29 nM; in assay [4] it was 17 nM; in assay [5] it was 12 nM.
